Here are results for 1 molecule from PMC9108885 (The Journal of Biological Chemistry, 2022).

The assay concerns the target human α-synuclein (human, UniProt P37840 1-140, biotin (for BLI, sites not stated); 15N-labelled (for NMR)). The experiment in a line: BLI. (BLI is a label-free optical method that tracks binding on a fibre tip over time.)

B1: mouse nicotinamide mononucleotide adenylyltransferase 3 (enzyme)
chain: MKNRIPVVLLACGSFNPITNMHLRLFEVARDHLHQTGRYQVIEGIISPVNDSYGKKDLVASHHRVAMARLALQTSDWIRVDPWESEQAQWMETVKVLRHHHRELLRSSAQMDGPDPSKTPSASAALPELKLLCGADVLKTFQTPNLWKDTHIQEIVEKFGLVCVSRSGHDPERYISDSPILQQFQHNIHLAREPVLNEISATYVRKALGQGQSVKYLLPEAVITYIRDQGLYINDGSWKGKGKTG
By Kd is commonly meant the free concentration of one partner at which half of the binding sites on the other are occupied at equilibrium, for simple one-to-one binding. Read a low Kd as higher affinity. Regarding B1, the Kd was 1900 ± 30 nM.
